± gives the uncertainty stated by the source.

First the molecules themselves.
B1: E3 ubiquitin-protein ligase TRIM36, residues 208 to 252; numbered along this chain, Q9NQ86 (parent)
chain: KILMCPEHETERINMYCELCRRPVCHLCKLGGNHANHRVTTMSSA

Variants of B1 are the subject of the data set. In words: abundance fitness (aPCA) (normalised: wild type 0, dead -1); higher = more abundant; growth selection in yeast, the domain comes from the species named. The note with it: Homo sapiens.
In the case of KILMCPEHETERINMYCELCRRPVCHLCKLGQNHANHRVTTMSSA, the abundance fitness is -0.036 ± 0.061.

In the case of KILMCPEHETERINMYCELCRRPVCHLCKLGHNHANHRVTTMSSA, the abundance fitness was -0.267 ± 0.11.

Consider KILMCPEHETERINMYCELCRRPVCHLCKLGCNHANHRVTTMSSA, for which the abundance fitness was -0.132 ± 0.06.

Take KILMCPEHETERINMYCELCRRPVCHLCKLGFNHANHRVTTMSSA: the abundance fitness is -0.243 ± 0.12.

As for KILMCPEHETERINMYCELCRRPVCHLCKLGANHANHRVTTMSSA, the abundance fitness was 0.028 ± 0.053.

For the variant KILMCPEHETERINMYCELCRRPVCHLCKLGLNHANHRVTTMSSA, the abundance fitness is -0.144 ± 0.052.

KILMCPEHETERINMYCELCRRPVCHLCKLGINHANHRVTTMSSA: the abundance fitness is -0.276 ± 0.1.

Take KILMCPEHETERINMYCELCRRPVCHLCKLGRNHANHRVTTMSSA: the abundance fitness is -0.138 ± 0.049.

KILMCPEHETERINMYCELCRRPVCHLCKLGPNHANHRVTTMSSA: the abundance fitness is -0.015 ± 0.054.

On to KILMCPEHETERINMYCELCRRPVCHLCKLGSNHANHRVTTMSSA, for which the abundance fitness was -0.045 ± 0.05.

As to KILMCPEHETERINMYCELCRRPVCHLCKLGWNHANHRVTTMSSA, the abundance fitness was -0.297 ± 0.058.

Consider KILMCPEHETERINMYCELCRRPVCHLCKLGENHANHRVTTMSSA, for which the abundance fitness amounted to 0.089 ± 0.052.

As to KILMCPEHETERINMYCELCRRPVCHLCKLGTNHANHRVTTMSSA, the abundance fitness was -0.07 ± 0.056.

Take KILMCPEHETERINMYCELCRRPVCHLCKLGVNHANHRVTTMSSA: the abundance fitness is -0.163 ± 0.064.

Turning to KILMCPEHETERINMYCELCRRPVCHLCKLGNNHANHRVTTMSSA, the abundance fitness is -0.228 ± 0.08.

Regarding KILMCPEHETERINMYCELCRRPVCHLCKLGKNHANHRVTTMSSA, the abundance fitness was -0.129 ± 0.084.

Take KILMCPEHETERINMYCELCRRPVCHLCKLGDNHANHRVTTMSSA: the abundance fitness was -0.003 ± 0.067.

For KILMCPEHETERINMYCELCRRPVCHLCKLRGNHANHRVTTMSSA, the abundance fitness is -0.048 ± 0.048.

In the case of KILMCPEHETERINMYCELCRRPVCHLCKLPGNHANHRVTTMSSA, the abundance fitness is -0.285 ± 0.051.

As for KILMCPEHETERINMYCELCRRPVCHLCKLCGNHANHRVTTMSSA, the abundance fitness is -0.094 ± 0.069.

KILMCPEHETERINMYCELCRRPVCHLCKLDGNHANHRVTTMSSA: the abundance fitness was -0.109 ± 0.079.

KILMCPEHETERINMYCELCRRPVCHLCKLIGNHANHRVTTMSSA: the abundance fitness was -0.203 ± 0.081.

KILMCPEHETERINMYCELCRRPVCHLCKLNGNHANHRVTTMSSA: the abundance fitness is -0.058 ± 0.078.

For the variant KILMCPEHETERINMYCELCRRPVCHLCKLQGNHANHRVTTMSSA, the abundance fitness is -0.019 ± 0.056.

On to KILMCPEHETERINMYCELCRRPVCHLCKLEGNHANHRVTTMSSA, for which the abundance fitness is -0.111 ± 0.063.

On to KILMCPEHETERINMYCELCRRPVCHLCKLYGNHANHRVTTMSSA, for which the abundance fitness was -0.176 ± 0.058.

Turning to KILMCPEHETERINMYCELCRRPVCHLCKLWGNHANHRVTTMSSA, the abundance fitness was -0.438 ± 0.057.

Regarding KILMCPEHETERINMYCELCRRPVCHLCKLFGNHANHRVTTMSSA, the abundance fitness is -0.218 ± 0.094.

Turning to KILMCPEHETERINMYCELCRRPVCHLCKLLGNHANHRVTTMSSA, the abundance fitness was -0.259 ± 0.049.

Take KILMCPEHETERINMYCELCRRPVCHLCKLHGNHANHRVTTMSSA: the abundance fitness was -0.08 ± 0.056.

For KILMCPEHETERINMYCELCRRPVCHLCKLTGNHANHRVTTMSSA, the abundance fitness worked out at 0 ± 0.055.

Turning to KILMCPEHETERINMYCELCRRPVCHLCKLKGNHANHRVTTMSSA, the abundance fitness is -0.091 ± 0.083.

As to KILMCPEHETERINMYCELCRRPVCHLCKLAGNHANHRVTTMSSA, the abundance fitness was -0.034 ± 0.046.

As for KILMCPEHETERINMYCELCRRPVCHLCKLSGNHANHRVTTMSSA, the abundance fitness was -0.007 ± 0.053.

With KILMCPEHETERINMYCELCRRPVCHLCKDGGNHANHRVTTMSSA, the abundance fitness was 0.083 ± 0.063.

For the variant KILMCPEHETERINMYCELCRRPVCHLCKPGGNHANHRVTTMSSA, the abundance fitness was found to be 0.005 ± 0.056.

On to KILMCPEHETERINMYCELCRRPVCHLCKKGGNHANHRVTTMSSA, for which the abundance fitness amounted to 0.101 ± 0.065.

With KILMCPEHETERINMYCELCRRPVCHLCKVGGNHANHRVTTMSSA, the abundance fitness turned out to be 0.026 ± 0.048.

Turning to KILMCPEHETERINMYCELCRRPVCHLCKWGGNHANHRVTTMSSA, the abundance fitness was -0.203 ± 0.058.

Turning to KILMCPEHETERINMYCELCRRPVCHLCKRGGNHANHRVTTMSSA, the abundance fitness came to 0.045 ± 0.049.

For the variant KILMCPEHETERINMYCELCRRPVCHLCKQGGNHANHRVTTMSSA, the abundance fitness worked out at 0.067 ± 0.056.

As for KILMCPEHETERINMYCELCRRPVCHLCKCGGNHANHRVTTMSSA, the abundance fitness was -0.023 ± 0.063.

For the variant KILMCPEHETERINMYCELCRRPVCHLCKYGGNHANHRVTTMSSA, the abundance fitness was -0.549 ± 0.14.

On to KILMCPEHETERINMYCELCRRPVCHLCKHGGNHANHRVTTMSSA, for which the abundance fitness was -0.078 ± 0.097.

As for KILMCPEHETERINMYCELCRRPVCHLCKSGGNHANHRVTTMSSA, the abundance fitness came out at 0.075 ± 0.05.

Take KILMCPEHETERINMYCELCRRPVCHLCKAGGNHANHRVTTMSSA: the abundance fitness was 0.094 ± 0.05.

Consider KILMCPEHETERINMYCELCRRPVCHLCKIGGNHANHRVTTMSSA, for which the abundance fitness is -0.05 ± 0.11.

As to KILMCPEHETERINMYCELCRRPVCHLCKGGGNHANHRVTTMSSA, the abundance fitness came to 0.073 ± 0.051.

For the variant KILMCPEHETERINMYCELCRRPVCHLCKTGGNHANHRVTTMSSA, the abundance fitness was determined as 0.096 ± 0.058.

For the variant KILMCPEHETERINMYCELCRRPVCHLCKNGGNHANHRVTTMSSA, the abundance fitness worked out at 0.042 ± 0.089.

Regarding KILMCPEHETERINMYCELCRRPVCHLCKFGGNHANHRVTTMSSA, the abundance fitness was -0.206 ± 0.14.

Take KILMCPEHETERINMYCELCRRPVCHLCKEGGNHANHRVTTMSSA: the abundance fitness was 0.09 ± 0.056.

With KILMCPEHETERINMYCELCRRPVCHLCKMGGNHANHRVTTMSSA, the abundance fitness was -0.041 ± 0.082.

Regarding KILMCPEHETERINMYCELCRRPVCHPCKLGGNHANHRVTTMSSA, the abundance fitness is -0.355 ± 0.071.

With KILMCPEHETERINMYCELCRRPVCHSCKLGGNHANHRVTTMSSA, the abundance fitness was -0.003 ± 0.055.

Take KILMCPEHETERINMYCELCRRPVCHTCKLGGNHANHRVTTMSSA: the abundance fitness turned out to be 0.095 ± 0.081.

Take KILMCPEHETERINMYCELCRRPVCHNCKLGGNHANHRVTTMSSA: the abundance fitness stood at 0.005 ± 0.12.

(Values after the Human Domainome abundance scans (Beltran et al. 2025).)
